How the values were obtained:
[1] = biological target: T1, D-tryptophanyl-S-IvoA-ΔC(E^0)
T1 chain: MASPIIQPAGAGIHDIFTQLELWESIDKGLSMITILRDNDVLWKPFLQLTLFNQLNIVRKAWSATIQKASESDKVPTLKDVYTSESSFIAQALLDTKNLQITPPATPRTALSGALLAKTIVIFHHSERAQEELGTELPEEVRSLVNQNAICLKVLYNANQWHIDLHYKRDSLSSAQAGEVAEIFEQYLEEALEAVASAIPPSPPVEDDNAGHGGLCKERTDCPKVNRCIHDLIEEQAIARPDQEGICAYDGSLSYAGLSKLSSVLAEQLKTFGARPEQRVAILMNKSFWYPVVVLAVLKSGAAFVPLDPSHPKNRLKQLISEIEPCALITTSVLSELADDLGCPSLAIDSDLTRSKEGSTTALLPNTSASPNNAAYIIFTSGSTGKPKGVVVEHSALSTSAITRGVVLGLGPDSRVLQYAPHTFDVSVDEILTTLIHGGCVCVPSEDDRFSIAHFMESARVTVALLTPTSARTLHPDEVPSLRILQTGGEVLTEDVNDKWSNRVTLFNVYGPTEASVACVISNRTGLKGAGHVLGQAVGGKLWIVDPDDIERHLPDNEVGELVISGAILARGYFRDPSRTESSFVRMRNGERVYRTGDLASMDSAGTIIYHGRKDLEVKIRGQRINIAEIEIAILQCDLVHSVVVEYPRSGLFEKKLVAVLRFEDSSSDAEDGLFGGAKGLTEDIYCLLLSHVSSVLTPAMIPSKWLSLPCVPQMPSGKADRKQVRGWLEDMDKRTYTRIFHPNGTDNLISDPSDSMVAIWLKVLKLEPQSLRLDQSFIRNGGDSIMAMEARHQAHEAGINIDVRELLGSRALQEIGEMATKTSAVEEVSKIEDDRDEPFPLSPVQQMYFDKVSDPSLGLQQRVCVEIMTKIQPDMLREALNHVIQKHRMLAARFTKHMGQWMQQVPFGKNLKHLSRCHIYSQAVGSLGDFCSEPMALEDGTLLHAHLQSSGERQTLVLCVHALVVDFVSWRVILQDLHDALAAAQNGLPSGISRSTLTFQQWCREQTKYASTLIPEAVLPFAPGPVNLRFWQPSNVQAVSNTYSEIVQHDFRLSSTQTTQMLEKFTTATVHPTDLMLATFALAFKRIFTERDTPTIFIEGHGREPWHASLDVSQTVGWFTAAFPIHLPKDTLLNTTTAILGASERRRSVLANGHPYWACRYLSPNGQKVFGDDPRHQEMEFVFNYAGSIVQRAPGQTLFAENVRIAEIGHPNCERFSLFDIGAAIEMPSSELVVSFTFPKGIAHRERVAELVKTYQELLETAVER

[2] = biological target: T2, IvoA(C^0) mutant (H1428A)
T2 chain: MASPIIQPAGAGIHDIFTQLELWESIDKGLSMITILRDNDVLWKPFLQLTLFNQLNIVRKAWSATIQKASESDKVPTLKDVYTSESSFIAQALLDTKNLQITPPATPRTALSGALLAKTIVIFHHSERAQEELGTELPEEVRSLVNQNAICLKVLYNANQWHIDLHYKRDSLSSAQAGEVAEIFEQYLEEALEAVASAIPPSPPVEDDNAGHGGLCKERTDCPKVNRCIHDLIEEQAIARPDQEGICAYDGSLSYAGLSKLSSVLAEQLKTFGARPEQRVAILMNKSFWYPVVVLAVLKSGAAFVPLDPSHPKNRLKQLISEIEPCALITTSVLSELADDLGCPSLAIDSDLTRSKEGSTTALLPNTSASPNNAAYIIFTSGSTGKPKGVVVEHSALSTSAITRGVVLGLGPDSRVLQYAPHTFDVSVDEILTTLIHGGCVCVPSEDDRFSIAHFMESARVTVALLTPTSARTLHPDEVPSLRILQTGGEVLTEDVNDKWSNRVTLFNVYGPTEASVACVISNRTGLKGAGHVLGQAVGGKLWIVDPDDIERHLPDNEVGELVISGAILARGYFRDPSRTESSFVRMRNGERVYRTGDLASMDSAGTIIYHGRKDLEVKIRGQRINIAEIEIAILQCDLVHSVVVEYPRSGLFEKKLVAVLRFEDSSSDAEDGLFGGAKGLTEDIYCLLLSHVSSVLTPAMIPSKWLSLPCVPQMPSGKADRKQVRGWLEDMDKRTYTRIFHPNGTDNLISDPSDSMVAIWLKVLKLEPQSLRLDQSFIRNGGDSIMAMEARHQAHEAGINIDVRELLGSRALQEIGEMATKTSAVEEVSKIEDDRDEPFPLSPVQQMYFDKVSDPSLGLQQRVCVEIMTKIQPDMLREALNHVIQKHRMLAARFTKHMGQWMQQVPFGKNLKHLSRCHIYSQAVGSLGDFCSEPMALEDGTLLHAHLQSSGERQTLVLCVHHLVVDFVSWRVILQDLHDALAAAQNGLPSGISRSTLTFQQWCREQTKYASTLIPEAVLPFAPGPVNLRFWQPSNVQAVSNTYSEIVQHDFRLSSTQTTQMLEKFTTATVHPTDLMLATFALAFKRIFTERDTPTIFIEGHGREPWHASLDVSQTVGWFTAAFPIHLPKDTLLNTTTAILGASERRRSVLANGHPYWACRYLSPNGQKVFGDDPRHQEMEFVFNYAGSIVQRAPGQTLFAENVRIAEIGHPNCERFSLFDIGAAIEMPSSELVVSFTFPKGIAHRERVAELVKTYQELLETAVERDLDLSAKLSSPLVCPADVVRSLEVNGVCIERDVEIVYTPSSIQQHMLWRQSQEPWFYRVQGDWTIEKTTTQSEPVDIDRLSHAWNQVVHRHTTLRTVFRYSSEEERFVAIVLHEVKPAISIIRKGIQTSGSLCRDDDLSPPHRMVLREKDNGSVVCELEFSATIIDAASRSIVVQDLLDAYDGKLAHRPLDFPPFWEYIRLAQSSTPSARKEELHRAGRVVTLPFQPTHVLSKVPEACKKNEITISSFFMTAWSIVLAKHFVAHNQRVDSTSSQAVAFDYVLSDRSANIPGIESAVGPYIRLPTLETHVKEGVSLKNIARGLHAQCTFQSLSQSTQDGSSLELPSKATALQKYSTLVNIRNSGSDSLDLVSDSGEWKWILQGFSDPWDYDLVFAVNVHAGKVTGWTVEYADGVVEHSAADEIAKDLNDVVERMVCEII

[3] = biological target: T3, L-tryptophanyl-S-IvoA-ΔC(E^0)
T3 chain: T1 chain

B1: standalone IvoA-C (condensation (C) domain of Aspergillus nidulans single-module NRPS IvoA) (protein)
chain: DLDLSAKLSSPLVCPADVVRSLEVNGVCIERDVEIVYTPSSIQQHMLWRQSQEPWFYRVQGDWTIEKTTTQSEPVDIDRLSHAWNQVVHRHTTLRTVFRYSSEEERFVAIVLHEVKPAISIIRKGIQTSGSLCRDDDLSPPHRMVLREKDNGSVVCELEFSHTIIDAASRSIVVQDLLDAYDGKLAHRPLDFPPFWEYIRLAQSSTPSARKEELHRAGRVVTLPFQPTHVLSKVPEACKKNEITISSFFMTAWSIVLAKHFVAHNQRVDSTSSQAVAFDYVLSDRSANIPGIESAVGPYIRLPTLETHVKEGVSLKNIARGLHAQCTFQSLSQSTQDGSSLELPSKATALQKYSTLVNIRNSGSDSLDLVSDSGEWKWILQGFSDPWDYDLVFAVNVHAGKVTGWTVEYADGVVEHSAADEIAKDLNDVVERMVCEII
IvoA-C catalyzed hydrolysis of the protein-bound thioester; liberated free tryptophan quantified by LC-MS [1]: IvoA-C stereoselectively hydrolyzed D-tryptophanyl-S-IvoA-ΔC(E^0) over L-tryptophanyl-S-IvoA-ΔC(E^0)
stereoinversion activity (complementation in trans) [2]: Addition of IvoA-C in equimolar to either IvoA(C^0) mutant or IvoA-ΔC truncation mutant successfully rescued the impaired stereoinversion activity
IvoA-C catalyzed hydrolysis of the protein-bound thioester; liberated free tryptophan quantified by LC-MS [3]: IvoA-C stereoselectively hydrolyzed D-tryptophanyl-S-IvoA-ΔC(E^0) over L-tryptophanyl-S-IvoA-ΔC(E^0)
